Results taken from publication PMC10319324.

T1: recombinant wildtype human PI31 (Proteasome Inhibitor of 31,000 Da) (human), Q92530
T1 chain: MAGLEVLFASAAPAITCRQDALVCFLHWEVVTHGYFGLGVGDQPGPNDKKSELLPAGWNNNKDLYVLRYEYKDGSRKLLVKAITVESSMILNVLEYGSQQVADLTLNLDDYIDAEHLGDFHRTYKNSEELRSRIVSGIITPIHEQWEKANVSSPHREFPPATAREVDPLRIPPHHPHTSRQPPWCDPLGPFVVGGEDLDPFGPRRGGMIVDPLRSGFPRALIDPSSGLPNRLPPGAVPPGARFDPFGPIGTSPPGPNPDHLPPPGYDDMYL


Legend:
[1] = target: bovine 20S proteasome (bovine) (UniProt Q2YDE4)
[2] = target: T1, recombinant wildtype human PI31 …; test: mass photometry; monomer to dimer; His-PI31 diluted to 40 nM total monomer in PBS, recorded immediately after mixing (TwoMP, Refeyn); peaks at 36 to 37 and 56 to 59 kDa; details: remark: other sources report otherwise

Binder | inhibition of β5-specific peptide hydrolysis by 20S (143 nM 20S, 1.4 μM PI31) (times less well than wildtype hPI31) [1] | [monomer]/[M]T ratio [2] | dimer counts (mass photometry) [2] [counts] | monomer counts (mass photometry) [2] [counts] | stoichiometry N [2]
human PI31 D197A point mutant (natural protein) MAGLEVLFASAAPAITCRQDALVCFLHWEVVTHGYFGLGVGDQPGPNDKKSELLPAGWNNNKDLYVLRYEYKDGSRKLLVKAITVESSMILNVLEYGSQQVADLTLNLDDYIDAEHLGDFHRTYKNSEELRSRIVSGIITPIHEQWEKANVSSPHREFPPATAREVDPLRIPPHHPHTSRQPPWCDPLGPFVVGGEALDPFGPRRGGMIVDPLRSGFPRALIDPSSGLPNRLPPGAVPPGARFDPFGPIGTSPPGPNPDHLPPPGYDDMYL | 3 | – | – | – | –
recombinant wildtype human PI31 (Proteasome Inhibitor of 31,000 Da), Q92530 1-271 (natural protein) MAGLEVLFASAAPAITCRQDALVCFLHWEVVTHGYFGLGVGDQPGPNDKKSELLPAGWNNNKDLYVLRYEYKDGSRKLLVKAITVESSMILNVLEYGSQQVADLTLNLDDYIDAEHLGDFHRTYKNSEELRSRIVSGIITPIHEQWEKANVSSPHREFPPATAREVDPLRIPPHHPHTSRQPPWCDPLGPFVVGGEDLDPFGPRRGGMIVDPLRSGFPRALIDPSSGLPNRLPPGAVPPGARFDPFGPIGTSPPGPNPDHLPPPGYDDMYL | – | 0.32 | 2060 | 2180 | 2
